Measurements published in the supplement of paper PMC11246515.
± gives the standard deviation of the averaged measurements.

Assay: total protein half-life in vivo (active degradation + dilution); higher = more stable protein
[1] = E. coli NCM3722 delta-clpP delta-lon delta-hslV, growth: N-lim chemostat, doubling time 6 h
[2] = E. coli NCM3722 delta-clpP, growth: N-lim chemostat, doubling time 6 h
[3] = E. coli NCM3722 delta-hslV, growth: N-lim chemostat, doubling time 6 h
[4] = E. coli NCM3722 delta-lon, growth: N-lim chemostat, doubling time 6 h
[5] = E. coli NCM3722 delta-smpB, growth: N-lim chemostat, doubling time 6 h
[6] = wild type E. coli NCM3722, growth: C-lim chemostat, doubling time 3 h
[7] = wild type E. coli NCM3722, growth: C-lim chemostat, doubling time 6 h
[8] = wild type E. coli NCM3722, growth: C-lim chemostat, doubling time 12 h
[9] = wild type E. coli NCM3722, growth: N-lim chemostat, doubling time 6 h
[10] = wild type E. coli NCM3722, growth: N-lim chemostat, doubling time 12 h
[11] = wild type E. coli NCM3722, growth: P-lim chemostat, doubling time 6 h
[12] = wild type E. coli NCM3722, growth: P-lim chemostat, doubling time 12 h

Row | Sequence | total protein half-life in vivo [1] [h] | total protein half-life in vivo [2] [h] | total protein half-life in vivo [3] [h] | total protein half-life in vivo [4] [h] | total protein half-life in vivo [5] [h] | total protein half-life in vivo [6] [h] | total protein half-life in vivo [7] [h] | total protein half-life in vivo [8] [h] | total protein half-life in vivo [9] [h] | total protein half-life in vivo [10] [h] | total protein half-life in vivo [11] [h] | total protein half-life in vivo [12] [h]
1 | MLRIIDTETCGLQGGIVEIASVDVIDGKIVNPMSHLVRPDRPISPQAMAIHRITEAMVADKPWIEDVIPHYYGSEWYVAHNASFDRRVLPEMPGEWICTMKLARRLWPGIKYSNMALYKTRKLNVQTPPGLHHHRALYDCYITAALLIDIMNTSGWTAEQMADITGRPSLMTTFTFGKYRGKAVSDVAERDPGYLRWLFNNLDSMSPELRLTLKHYLENT [P0AEK0] | 5.44 ± 2 | 1.56 ± 0.12 | 1.2033 ± 0.0011 | 2.29 ± 0.6 | 0.987 ± 0.0014 | 1.24 ± 0.16 | 2 ± 0.16 | 2.32 | 1.37 ± 0.12 | 2.04 ± 0.23 | 1.52 ± 0.42 | 3.43
2 | MDFFSVQNILVHIPIGAGGYDLSWIEAVGTIAGLLCIGLASLEKISNYFFGLINVTLFGIIFFQIQLYASLLLQVFFFAANIYGWYAWSRQTSQNEAELKIRWLPLPKALSWLAVCVVSIGLMTVFINPVFAFLTRVAVMIMQALGLQVVMPELQPDAFPFWDSCMMVLSIVAMILMTRKYVENWLLWVIINVISVVIFALQGVYAMSLEYIILTFIALNGSRMWINSARERGSRALSH [P0AFK2] | 6.22 | 6.15 ± 0.15 | 6.54 | 5.58 ± 0.22 | 5.5 ± 0.096 | 3.29 ± 0.33 | 6.14 ± 0.31 | 11.8 ± 2.2 | 6.05 | 11.5 ± 3 | 6.07 ± 0.39 | 
3 | MLKRKKVKPITLRDVTIIDDGKLRKAITAASLGNAMEWFDFGVYGFVAYALGKVFFPGADPSVQMVAALATFSVPFLIRPLGGLFFGMLGDKYGRQKILAITIVIMSISTFCIGLIPSYDTIGIWAPILLLICKMAQGFSVGGEYTGASIFVAEYSPDRKRGFMGSWLDFGSIAGFVLGAGVVVLISTIVGEANFLDWGWRIPFFIALPLGIIGLYLRHALEETPAFQQHVDKLEQGDREGLQDGPKVSFKEIATKYWRSLLTCIGLVIATNVTYYMLLTYMPSYLSHNLHYSEDHGVLIIIAIMIGMLFVQPVMGLLSDRFGRRPFVLLGSVALFVLAIPAFILINSNVIGLIFAGLLMLAVILNCFTGVMASTLPAMFPTHIRYSALAAAFNISVLVAGLTPTLAAWLVESSQNLMMPAYYLMVVAVVGLITGVTMKETANRPLKGATPAASDIQEAKEILVEHYDNIEQKIDDIDHEIADLQAKRTRLVQQHPRIDE [P0C0L7] | 5.246 ± 0.018 | 4.97 ± 0.25 | 4.59 ± 0.35 | 4.34 ± 0.14 | 5.04 ± 0.79 |  | 4.62 ± 0.43 | 7.56 ± 3.2 | 4.46 ± 0.41 | 10.4 ± 2.3 | 4.78 ± 0.066 | 7.9 ± 0.16
4 | MSTPLQGIKVLDFTGVQSGPSCTQMLAWFGADVIKIERPGVGDVTRHQLRDIPDIDALYFTMLNSNKRSIELNTKTAEGKEVMEKLIREADILVENFHPGAIDHMGFTWEHIQEINPRLIFGSIKGFDECSPYVNVKAYENVAQAAGGAASTTGFWDGPPLVSAAALGDSNTGMHLLIGLLAALLHREKTGRGQRVTMSMQDAVLNLCRVKLRDQQRLDKLGYLEEYPQYPNGTFGDAVPRGGNAGGGGQPGWILKCKGWETDPNAYIYFTIQEQNWENTCKAIGKPEWITDPAYSTAHARQPHIFDIFAEIEKYTVTIDKHEAVAYLTQFDIPCAPVLSMKEISLDPSLRQSGSVVEVEQPLRGKYLTVGCPMKFSAFTPDIKAAPLLGEHTAAVLQELGYSDDEIAAMKQNHAI |  |  |  |  |  |  |  |  |  |  | 5.48 | 
5 | MTSLVVPGLDTLRQWLDDLGMSFFECDNCQALHLPHMQNFDGVFDAKIDLIDNTILFSAMAEVRPSAVLPLAADLSAINASSLTVKAFLDMQDDNLPKLVVCQSLSVMQGVTYEQFAWFVRQSEEQISMVILEANAHQLLLPTDDEGQNNVTENYFLH [P0AAY6] | 2.64 ± 2.3 |  | 2.7 | 4.39 | 1.74 ± 1.4 |  |  | 1.21 | 0.868 |  |  | 
6 | MKHELSSMKAFVILAESSSFNNAAKLLNITQPALTRRIKKMEEDLHVQLFERTTRKVTLTKAGKRLLPEARELIKKFDETLFNIRDMNAYHRGMVTLACIPTAVFYFLPLAIGKFNELYPNIKVRILEQGTNNCMESVLCNESDFGINMNNVTNSSIDFTPLVNEPFVLACRRDHPLAKKQLVEWQELVGYKMIGVRSSSGNRLLIEQQLADKPWKLDWFYEVRHLSTSLGLVEAGLGISALPGLAMPHAPYSSIIGIPLVEPVIRRTLGIIRRKDAVLSPAAERFFALLINLWTDDKDNLWTNIVERQRHALQEIG | 3.61 |  |  |  |  |  |  |  |  |  |  | 
7 | MRADKSLSPFEIRVYRHYRIVHGTRVALAFLLTFLIIRLFTIPESTWPLVTMVVIMGPISFWGNVVPRAFERIGGTVLGSILGLIALQLELISLPLMLVWCAAAMFLCGWLALGKKPYQGLLIGVTLAIVVGSPTGEIDTALWRSGDVILGSLLAMLFTGIWPQRAFIHWRIQLAKSLTEYNRVYQSAFSPNLLERPRLESHLQKLLTDAVKMRGLIAPASKETRIPKSIYEGIQTINRNLVCMLELQINAYWATRPSHFVLLNAQKLRDTQHMMQQILLSLVHALYEGNPQPVFANTEKLNDAVEELRQLLNNHHDLKVVETPIYGYVWLNMETAHQLELLSNLICRALRK | 6.005 ± 0.0077 |  | 5.415 ± 0.036 | 6.43 ± 0.51 | 5.53 ± 1.8 | 3.27 ± 0.35 | 5.4 ± 0.19 | 11.5 ± 0.28 | 5.61 ± 0.075 | 7.75 ± 6 | 4.76 ± 2.1 | 10.6 ± 3.9
8 | MTIRSYKNLNLVRANIETESRQFIENKNYSIQSIGPMPGSRAGLRVVFTRPGVNLATVDIFYNGDGSTTIQYLTGANRSLGQELADHLFETINPAEFEQVNMVLQGFVETSVLPVLELSADESHIEFREHSRNAHTVVWKIISTSYQDELTVSLHITTGKLQIQGRPLSCYRVFTFNLAALLDLQGLEKVLIRQEDGKANIVQQEVARTYLQTVMADAYPHLHVTAEKLLVSGLCVKLAAPDLPDYCMLLYPELRTIEGVLKSKMSGLGMPVQQPAGFGTYFDKPAAHYILKPQFAATLRPEQINIISTAYTFFNVERHSLFHMETVVDASRMISDMARLMGKATRAWGIIKDLYIV | 5.71 |  | 1.859 ± 0.0024 | 1.2 | 0.954 | 1.22 |  | 3.37 | 1.41 | 4.02 ± 2.5 | 1.17 | 3.31 ± 1.4
